# Laboratory results reported in US20110280881A1, “NOVEL ANTI-HSP90 MONOCLONAL ANTIBODY” (RIKEN, priority 2010, published 2011).
# B1: 6H8-OVA: high molecular weight conjugate of the 6H8 antibody and maleimide-activated OVA (conjugate)
# VH: QVQLQQSGPELVKPGASVRISCKASGYTFTSYYIHWVKQRPGQGLEWIGWIYPGNVNTKYNEKFKGKATLTADKSSSTAYMQLSSLTSEDSAVYFCARYGNYPFAYWGQGTLVTVSAAKTTAPSVYPLAPVCGDTTGSSVTLGCLVKGYF
# VL: DVVMTQTPLSLPVSLGDQASISCRSSQSLVHSNGNTYLHWYLQKPGQSPKLLIYKVSNRFSGVPDRFSGSGSGTDFTLKISRVEAEDLGVYFCSQSTHVPPTFGGGTKLEIKRADAAPTVSIFPPSSEQLTSGGASVVCFLNNFYPKDINVKWKIDGS
# chain: GSIGAASMEFCFDVFKELKVHHANENIFYCPIAIMSALAMVYLGAKDSTRTQINKVVRFDKLPGFGDSIEAQCGTSVNVHSSLRDILNQITKPNDVYSFSLASRLYAEERYPILPEYLQCVKELYRGGLEPINFQTAADQARELINSWVESQTNGIIRNVLQPSSVDSQTAMVLVNAIVFKGLWEKAFKDEDTQAMPFRVTEQESKPVQMMYQIGLFRVASMASEKMKILELPFASGTMSMLVLLPDEVSGLEQLESIINFEKLTEWTSSNVMEERKIKVYLPRMKMEEKYNLTSVLMAMGITDVFSSSANLSGISSAESLKISQAVHAAHAEINEAGREVVGSAEAGVDAASVSEEFRADHPFLFCIKHIATNAVLFFGRCVSP
# How the values were obtained:
# OT-I CD8+ T cells [1] = experiment: In vivo proliferation of transplanted CFSE-labeled OT-I CD8+ T cells; parameters: species or system mouse; details: for proliferation of transplanted OT-I CD8+ T cells: 3 μg fractions 15 to 19 (mixture), three days
# Procedure: First, CFSE-labeled OT-I CD8^+ T cells were generated as follows: A 10 mM CFSE stock solution in DMSO was diluted with PBS to prepare a 10 μM CFSE solution. A pellet of splenocytes prepared in a 15-ml tube was thoroughly loosened by tapping, after which 2 ml of the 10 μM CFSE solution was added thereto, and the mixture was gently vortexed. After being allowed to stand at room temperature for 5 minutes, the cells were washed twice with PBS (5 ml).
# The CFSE-labeled OT-I CD8^+ T cells were transplanted to recipient mice from the tail vein. The recipient mice used were a wild-type B6 mouse (WT B6) and a TAP1-deficient mouse [TAP1 KO (purchased from Jackson Laboratory, U.S.A.)]. At the same time, 3 μg of the fractions 15 to 19 (mixture), 3 μg of the fraction 33, or a mixture of the fraction 33 (3 μg) and the free 6H8 antibody (3 μg) was injected. Three days later, splenocytes of each recipient mouse were collected and examined for proliferation of the transplanted cells.
# A mixture of the fractions 15 to 19 containing the 6H8-OVA conjugate was injected into recipient mice at a series of doses, and the proliferation of OT-I CD8^+ T cells was examined in the same manner as the above. As a result, higher doses of the mixture more potently promoted the proliferation of CD8^+ T cells, although this effect was observed even at 0.1 μg (upper panel of FIG. 8C).
# OT-I CD8+ T cells [2] = experiment: In vivo differentiation of transferred OT-I CD8+ T cells into memory T cells (CD44); parameters: species or system mouse; details: 3 μg tail vein, 96 hours, compared with group that did not receive 6H8-OVA
# Procedure: (1) 2×10^6 CD8^+ cells of an OT-I/CD45.1 mouse were transferred to a C57BL/6 mouse from the tail vein, with 3 μg of 6H8-OVA or PBS administered from the tail vein concurrently. (2) 96 hours later, the mouse spleen was recovered, and 2×10^6 splenocytes were stained with the following antibodies in a 96-well round-bottomed plate for 30 minutes (while cooling on ice).
# PE-anti-mouse/human CD44 (eBioscience: Cat No. 12-0041), concentration: 1 μg/ml, amount used: 100 μl.
# Biotin-anti-CD45.1 (eBioscience: 13-0453), concentration: 2.5 μg/ml, amount used: 100 μl.
# (3) After being washed twice with PBS, the cells were stained with the following antibody for 30 minutes (while cooling on ice).
# Streptavidin-APC (BioLegend: 405207), concentration: 0.2 μg/ml, amount used: 100 μl.
# (4) After being washed twice with Annexin-binding buffer, the cells were stained with FITC-Annexin V using the Annexin V FITC reagent for 10 minutes (while cooling on ice).
# (5) Fluorescence was determined using FACS Canto (BD).
molecule,measurement,setting,value
B1,proliferation of transplanted OT-I CD8+ T cells,OT-I CD8+ T cells [1]; TAP1-deficient mouse,did not induce the proliferation of CD8^+ T cells at all
same,dose at which promotion of proliferation of OT-I CD8+ T cells was observed,OT-I CD8+ T cells [1]; series of doses injected into recipient mice,≤ 0.1 µg
same,proliferation of transplanted OT-I CD8+ T cells,OT-I CD8+ T cells [1]; wild-type B6 mouse,proliferation of CD8^+ T cells was confirmed
same,expression level of CD44 on transferred OT-I CD8+ T cells,OT-I CD8+ T cells [2],increased
